The target in series [1] is T1, Orange Carotenoid Protein, dark-adapted state (OCP^O), wild type, canthaxanthin-binding holo form (Synechocystis sp. PCC 6803), P74102.
T1 chain: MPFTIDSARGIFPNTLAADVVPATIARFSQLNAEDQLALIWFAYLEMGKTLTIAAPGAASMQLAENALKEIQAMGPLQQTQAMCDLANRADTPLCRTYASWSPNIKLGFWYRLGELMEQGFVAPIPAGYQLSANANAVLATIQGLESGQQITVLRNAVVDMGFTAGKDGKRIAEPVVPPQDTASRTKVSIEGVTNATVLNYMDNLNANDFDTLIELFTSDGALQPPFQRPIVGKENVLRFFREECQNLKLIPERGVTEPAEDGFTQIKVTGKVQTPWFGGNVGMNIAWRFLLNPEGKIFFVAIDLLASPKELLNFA
Kind of series: SAXS. The conditions noted are these: remark: other sources report otherwise.

The target in series [2] is T1, Orange Carotenoid Protein, dark-adapted …. In words: transient grating spectroscopy. The conditions noted are these: remark: other sources report otherwise.
Series [3] has the same target. Kind of series: SEC. The following applies: remark: other sources report otherwise.
Series [4] has as its target T2, apo-OCP (carotenoid-free Orange Carotenoid Protein) (Synechocystis sp. PCC 6803), P74102.
T2 chain: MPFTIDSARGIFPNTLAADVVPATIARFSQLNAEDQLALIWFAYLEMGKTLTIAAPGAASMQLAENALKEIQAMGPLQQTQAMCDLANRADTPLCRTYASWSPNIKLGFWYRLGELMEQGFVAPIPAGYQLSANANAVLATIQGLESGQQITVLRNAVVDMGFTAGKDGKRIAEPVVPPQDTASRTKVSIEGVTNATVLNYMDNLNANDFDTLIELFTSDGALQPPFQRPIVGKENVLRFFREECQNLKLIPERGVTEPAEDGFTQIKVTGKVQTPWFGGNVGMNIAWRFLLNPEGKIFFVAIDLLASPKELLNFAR
Kind of series: SAXS. The conditions noted are these: remark: other sources report otherwise.

Series [5] concerns the target T2, apo-OCP (carotenoid-free Orange …). In words: SEC. The conditions noted are these: remark: other sources report otherwise.
The series “SEC” concerns the molecule itself. Kind of series: SEC. Background: SEC sorts molecules by how far they enter the pores of the column.
The target of series [6] is T3, Orange Carotenoid Protein, light-adapted state (OCP^R), wild type, canthaxanthin-binding holo form (Synechocystis sp. PCC 6803), P74102.
T3 chain: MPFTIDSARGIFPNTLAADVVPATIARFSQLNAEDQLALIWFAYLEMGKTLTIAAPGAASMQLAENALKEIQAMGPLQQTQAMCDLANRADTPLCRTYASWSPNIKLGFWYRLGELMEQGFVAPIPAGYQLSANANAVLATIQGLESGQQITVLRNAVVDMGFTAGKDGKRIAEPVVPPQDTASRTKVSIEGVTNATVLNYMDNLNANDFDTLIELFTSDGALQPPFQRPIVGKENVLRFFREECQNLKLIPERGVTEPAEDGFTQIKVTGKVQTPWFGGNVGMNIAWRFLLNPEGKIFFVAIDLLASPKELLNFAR
Kind of series: SAXS. The following applies: remark: other sources report otherwise.

Series [7] has as its target T3, Orange Carotenoid Protein, …. Kind of series: SEC. The following applies: remark: other sources report otherwise.

What is called stoichiometry N is a count of units in the complex or per binding partner. One may read the Kd as the concentration at which binding is half-saturated. A low value points to higher affinity.

B1: Orange Carotenoid Protein, dark-adapted state (OCP^O), wild type, canthaxanthin-binding holo form, P74102 1-316 (natural protein)
chain: MPFTIDSARGIFPNTLAADVVPATIARFSQLNAEDQLALIWFAYLEMGKTLTIAAPGAASMQLAENALKEIQAMGPLQQTQAMCDLANRADTPLCRTYASWSPNIKLGFWYRLGELMEQGFVAPIPAGYQLSANANAVLATIQGLESGQQITVLRNAVVDMGFTAGKDGKRIAEPVVPPQDTASRTKVSIEGVTNATVLNYMDNLNANDFDTLIELFTSDGALQPPFQRPIVGKENVLRFFREECQNLKLIPERGVTEPAEDGFTQIKVTGKVQTPWFGGNVGMNIAWRFLLNPEGKIFFVAIDLLASPKELLNFA
In series [1], B1 registered a stoichiometry N of 2. In series [2], this molecule gave a fitted dimer fraction (100 µM) of 0.6 and a k1d (rate constant of the photo-induced dissociation of the OCP^O dimer) of 1000 s⁻¹. In series [3], this molecule showed a Kd of 10000 nM and a stoichiometry N of 2.

B2: apo-OCP (carotenoid-free Orange Carotenoid Protein), P74102 1-317 (natural protein)
chain: MPFTIDSARGIFPNTLAADVVPATIARFSQLNAEDQLALIWFAYLEMGKTLTIAAPGAASMQLAENALKEIQAMGPLQQTQAMCDLANRADTPLCRTYASWSPNIKLGFWYRLGELMEQGFVAPIPAGYQLSANANAVLATIQGLESGQQITVLRNAVVDMGFTAGKDGKRIAEPVVPPQDTASRTKVSIEGVTNATVLNYMDNLNANDFDTLIELFTSDGALQPPFQRPIVGKENVLRFFREECQNLKLIPERGVTEPAEDGFTQIKVTGKVQTPWFGGNVGMNIAWRFLLNPEGKIFFVAIDLLASPKELLNFAR
Consider B2, for which, in series [4], the stoichiometry N is 2. In series [5], this molecule came in with a Kd of 500 nM and a stoichiometry N of 2.

B3: OCP(R27L) mutant, light-adapted state (natural protein)
chain: MPFTIDSARGIFPNTLAADVVPATIALFSQLNAEDQLALIWFAYLEMGKTLTIAAPGAASMQLAENALKEIQAMGPLQQTQAMCDLANRADTPLCRTYASWSPNIKLGFWYRLGELMEQGFVAPIPAGYQLSANANAVLATIQGLESGQQITVLRNAVVDMGFTAGKDGKRIAEPVVPPQDTASRTKVSIEGVTNATVLNYMDNLNANDFDTLIELFTSDGALQPPFQRPIVGKENVLRFFREECQNLKLIPERGVTEPAEDGFTQIKVTGKVQTPWFGGNVGMNIAWRFLLNPEGKIFFVAIDLLASPKELLNFAR
As to B3, the “stoichiometry N” value in the series “SEC” was 2.

B4: Orange Carotenoid Protein, light-adapted state (OCP^R), wild type, canthaxanthin-binding holo form, P74102 1-317 (natural protein)
chain: MPFTIDSARGIFPNTLAADVVPATIARFSQLNAEDQLALIWFAYLEMGKTLTIAAPGAASMQLAENALKEIQAMGPLQQTQAMCDLANRADTPLCRTYASWSPNIKLGFWYRLGELMEQGFVAPIPAGYQLSANANAVLATIQGLESGQQITVLRNAVVDMGFTAGKDGKRIAEPVVPPQDTASRTKVSIEGVTNATVLNYMDNLNANDFDTLIELFTSDGALQPPFQRPIVGKENVLRFFREECQNLKLIPERGVTEPAEDGFTQIKVTGKVQTPWFGGNVGMNIAWRFLLNPEGKIFFVAIDLLASPKELLNFAR
Take B4: in series [6], the stoichiometry N came to 2. In series [7], the Kd is 1800 nM and the stoichiometry N is 2.

These data come from article doi:10.1101/2025.05.26.656073 (bioRxiv, 2025).
